Test results from publication doi:10.1101/2023.12.05.570199.

Biological target: AliC (residues 24-655) (Streptococcus pneumoniae)
Assay: crystal structure

AliC (residues 24-655) (natural protein)
stoichiometry N: 2
